Laboratory results reported in US11407825B2, “NaPi2b-targeted polymer antibody-drug conjugates and methods of use thereof” (Mersana Therapeutics, Inc., priority 2018, dated 2022).

Assay: Phase 1b dose escalation study of XMT-1536: safety and tolerability (adverse events, DLT)
Assay type: in vivo, human
Excerpt: The study presented herein is an open label, multi-center Phase 1b study of XMT-1536 administered as an intravenous infusion once every three or four weeks. The dose escalation (DES) part of the study will establish the maximum tolerated dose (MTD) or recommended Phase 2 dose (RP2D) for XMT-1536 in patients with a number of tumor types likely to express NaPi2b, with a focus on patients with platinum-resistant ovarian cancer and non-squamous non-small cell lung cancer (NSCLC). […] The RP2D may differ from the MTD and may take into account tolerability, pharmacokinetic and pharmacodynamic measures, and efficacy of XMT-1536 based on RECIST 1.1. After the first cycle, patients may continue to receive XMT-1536 until disease progression provided the drug is well-tolerated and patients continue to derive clinical benefit in the opinion of the Investigator. The DES segment of the study utilized an accelerated titration design. The first 3-week cycle of treatment constitutes the dose limiting toxicity (DLT) evaluation period. For the first two dose levels, a minimum of 1 patient was treated at each dose level. If this patient experiences a treatment-emergent adverse event of Grade 2 or higher, 2 additional patients will be added at this dose level, and the study will subsequently follow a 3+3 design, as described below. […] Starting with Dose Level 3, the study will follow a standard 3+3 design, with 3 patients enrolled initially at each dose level. […] However, in the event of 1 DLT, 3 additional patients will be enrolled at the same dose level. Any dose level with 2 or more DLTs will be considered to exceed the MTD and subsequent patients will be enrolled at lower dose level(s). After the first cycle, patients may continue to receive XMT-1536 until disease progression if the drug is well-tolerated and patients continue to derive clinical benefit in the opinion of the Investigator.
After an August 2018 protocol amendment, each cycle will be 4-week (28 day) dose cycle. The first two, 4-week cycles of treatment (56 days) constitutes the dose limiting toxicity (DLT) evaluation period. Beginning with this amendment, up to 10 patients will be enrolled for evaluation at 20.0 mg/m^2 under the new 4-week cycle dose regimen. If that dose is cleared by the SRC, subsequent dose groups will follow a modified 3+3 design. Three patients will be enrolled initially and if toxicity issues arise, the SRC will review all pertinent data and may decide to add more patients to fully evaluate a dose in question and/or lower the dose. […] The observation period for DLTs is 56 days, between Day 1 through the end of Cycle 2 which includes the pre-dose assessments before receiving the Cycle 3 dose. A maximum of ten patients will be enrolled per dose level prior to the SRM. that will be conducted no later than 5 days after at least the sixth patient dosed in each level has completed Cycle 2, Day 28 evaluations. The data available for the patients dosed in all prior will be factored into the data review for each applicable dose escalation SRM. Any dose level with 2 or more DLTs occurring in 6 or fewer treated patients will be considered to exceed the MTD and subsequent patients will be enrolled at lower dose level(s). After the second cycle, patients may continue to receive XMT-1536 until disease progression if the drug is well-tolerated and patients continue to derive clinical benefit in the opinion of the Investigator. After completion of DES, the EXP segment of the study will be opened.
All adverse events will be graded according to the National Cancer Institute (NCI) Common Terminology Criteria version (CTCAE v4.03). The observation period for DLTs is 56 days, between Day 1 through end of Cycle 2 which includes the pre-dose assessments before receiving the Cycle 3 dose. […]

B1: XMT-1536: about 10-15 molecules of auristatin F-hydroxypropyl amide conjugated to a cysteine moiety of NaPi2b monoclonal antibody XMT-1535 via a PHF scaffold (conjugate, chains of the INN, looked up)
VH: QVQLVQSGAEVVKPGASVKMSCKASGYTFTGYNIHWVKQAPGQGLEWIGAIYPGNGDTSYKQKFRGRATLTADTSTSTVYMELSSLRSEDSAVYYCARGETARATFAYWGQGTLVTVSS
VL: DIQMTQSPSSLSASVGDRVTITCSASQDIGNFLNWYQQKPGKTVKVLIYYTSSLYSGVPSRFSGSGSGTDYTLTISSLQPEDFATYYCQQYSKLPLTFGQGTKLELK
modifications: auristatin F-hydroxypropyl amide via PHF scaffold
notes: about 10-15 molecules of auristatin F-hydroxypropyl amide conjugated to a cysteine moiety of NaPi2b monoclonal antibody XMT-1535 via a PHF scaffold
30 mg/m^2, 28-day cycle, as of August 2019
  number of DLT: One
30 mg/m^2, 28-day cycle, as of February 2019
  number of DLT: one
36 mg/m^2, 28-day cycle, as of August 2019
  number of DLT: one
40 mg/m^2, 21-day cycle, as of February 2019
  number of DLT: One
DL4 (20 mg/m^2)
  possible treatment related SAE: Grade 3 cardiac failure congestion
DL 4, 21-day cycle, as of February 2019
  SAE related to study drug: congestive heart failure
DL5 (30 mg/m^2)
  possible treatment related SAE: Grade 2 pyrexia
DL 5, 30 mg/m^2, 21-day cycle, as of February 2019
  SAE related to study drug: pyrexia
DL 5A
  ALT or bilirubin elevation: no elevation of ALT or bilirubin
  time for AST elevation to return to Grade 1: ≤ 13 days
  time for AST elevation to return to Grade 2: ≤ 7 days
DL 5A, alkaline phosphatase
  finding accompanying AST elevation: Grade 1 alkaline phosphatase elevation
DL 5A, cycle 1, day 8
  dose limiting toxicity: Grade 3 AST
DL6
  bilirubin elevation: no elevation of bilirubin
  time for ALT elevation to resolve to Grade 1: ≤ 8 days
  time for AST elevation to return to Grade 1: ≤ 21 days
DL6, ALT
  finding accompanying AST elevation: Grade 2 ALT elevation
DL6, alkaline phosphatase
  finding accompanying AST elevation: Grade 1 alkaline phosphatase elevation
DL6, cycle 1, day 8
  dose limiting toxicity: Grade 3 AST
TRAE, N = 37, May 10, 2019
  Aspartate aminotransferase (AST) increased Grade 1, patients: 3
  Aspartate aminotransferase (AST) increased Grade 1, percent of patients: (8) %
  Aspartate aminotransferase (AST) increased Grade 2, patients: 2
  Aspartate aminotransferase (AST) increased Grade 2, percent of patients: (5) %
  Aspartate aminotransferase (AST) increased Grade 3, patients: 4
  Aspartate aminotransferase (AST) increased Grade 3, percent of patients: 11%
  Aspartate aminotransferase (AST) increased Total, patients: 9
  Aspartate aminotransferase (AST) increased Total, percent of patients: (24) %
  Blood alkaline phosphatase increased Grade 1, patients: 6
  Blood alkaline phosphatase increased Grade 1, percent of patients: (16) %
  Blood alkaline phosphatase increased Grade 2, patients: 0
  Blood alkaline phosphatase increased Grade 3, patients: 0
  Blood alkaline phosphatase increased Total, patients: 6
  Blood alkaline phosphatase increased Total, percent of patients: (16) %
  Decreased appetite Grade 1, patients: 1
  Decreased appetite Grade 1, percent of patients: (3) %
  Decreased appetite Grade 2, patients: 6
  Decreased appetite Grade 2, percent of patients: (16) %
  Decreased appetite Grade 3, patients: 0
  Decreased appetite Total, patients: 7
  Decreased appetite Total, percent of patients: (19) %
  Fatigue Grade 1, patients: 4
  Fatigue Grade 1, percent of patients: (11) %
  Fatigue Grade 2, patients: 7
  Fatigue Grade 2, percent of patients: (19) %
  Fatigue Grade 3, patients: 0
  Fatigue Total, patients: 11
  Fatigue Total, percent of patients: (30) %
  Gamma-glutamyltransferase (GGT) increased Grade 1, patients: 3
  Gamma-glutamyltransferase (GGT) increased Grade 1, percent of patients: (8) %
  Gamma-glutamyltransferase (GGT) increased Grade 2, patients: 1
  Gamma-glutamyltransferase (GGT) increased Grade 2, percent of patients: (3) %
  Gamma-glutamyltransferase (GGT) increased Grade 3, patients: 0
  Gamma-glutamyltransferase (GGT) increased Total, patients: 4
  Gamma-glutamyltransferase (GGT) increased Total, percent of patients: (11) %
  Headache Grade 1, patients: 5
  Headache Grade 1, percent of patients: (14) %
  Headache Grade 2, patients: 5
  Headache Grade 2, percent of patients: (14) %
  Headache Grade 3, patients: 0
  Headache Total, patients: 10
  Headache Total, percent of patients: (27) %
  Myalgia Grade 1, patients: 3
  Myalgia Grade 1, percent of patients: (8) %
  Myalgia Grade 2, patients: 1
  Myalgia Grade 2, percent of patients: (3) %
  Myalgia Grade 3, patients: 0
  Myalgia Total, patients: 4
  Myalgia Total, percent of patients: (11) %
  Nausea Grade 1, patients: 12
  Nausea Grade 1, percent of patients: (32) %
  Nausea Grade 2, patients: 2
  Nausea Grade 2, percent of patients: (5) %
  Nausea Grade 3, patients: 0
  Nausea Total, patients: 14
  Nausea Total, percent of patients: (38) %
  Pyrexia Grade 1, patients: 3
  Pyrexia Grade 1, percent of patients: (8) %
  Pyrexia Grade 2, patients: 1
  Pyrexia Grade 2, percent of patients: (3) %
  Pyrexia Grade 3, patients: 0
  Pyrexia Total, patients: 4
  Pyrexia Total, percent of patients: (10) %
  Vomiting Grade 1, patients: 4
  Vomiting Grade 1, percent of patients: (11) %
  Vomiting Grade 2, patients: 1
  Vomiting Grade 2, percent of patients: (3) %
  Vomiting Grade 3, patients: 0
  Vomiting Total, patients: 5
  Vomiting Total, percent of patients: (14) %
As of February 2019
  grade of treatment-related adverse events (TRAEs): Grade 1 or 2
  most common TRAEs: anemia, arthralgias, fatigue, vomiting, anorexia, AST increase, diarrhea, dyspnea (unrelated or unlikely related), hypoalbuminema (unrelated or unlikely related), hypoxia (unrelated), headache, nausea, proteinuria and vomiting
  number of SAEs related to study drug: Two
As of May 10, 2019
  Grade 4 or 5 TRAE: no Grade 4 or 5 TRAE
  grade of adverse events: most adverse events being Grade 1 or 2
  number of SAEs unrelated or unlikely related to treatment: Seventeen
  number of possible treatment related SAEs: Two
  patients with SAEs unrelated or unlikely related to treatment: 11
  tolerability: well tolerated
  toxicities often associated with microtubule-targeting agents or ADCs (neutropenia, ocular toxicities, peripheral neuropathy): Low rate
At DL 5A (30 mg/m^2) and DL 6 (40 mg/m^2)
  number of dose limiting toxicities: Two
conclusions
  MTD / RP2D: Neither MTD nor RP2D has been identified
Maximum doses administered (40 mg/m^2)
  tolerability: well tolerated
Up to the 30 mg/m^2 or 36 mg/m^2 or 43 mg/m^2 dose level
  tolerability: well-tolerated
